The values below come from the DeepSol protein solubility set.

This data set is described as follows: soluble on expression in E. coli; label from the status in PepcDB or PDB records.
“MLEMLEYNHYQVQTHLENPTKYHIQQAQRQQVKQYLSTTLANKHANQVLSLPCPNQPGDHVMPPVPGSSAPNSPMAMLTLNSNCEKEGFYKFEEQNRAESECPGMNTHSRASCMQMDDVIDDIISLESSYNEEILGLMDPALQMANTLPVSGNLIDLYGNQGLPPPGLTISNSCPANLPNIKRELTESEARALAKERQKKDNHNLIERRRRFNINDRIKELGTLIPKSNDPDMRWNKGTILKASVDYIRKLQREQQRAKELENRQKKLEHANRHLLLRIQELEMQARAHGLSLIPSTGLCSPDLVNRIIKQEPVLENCSQDLLQHHADLTCTTTLDLTDGTITFNNNLGTGTEANQAYSVPTKMGSKLEDILMDDTLSPVGVTDPLLSSVSPGASKTSSRRSSMSMEETEHTC”: the “soluble on expression in E. coli” value was “soluble”.

For the sequence “MGHHHHHHSHMASETHNVKKRNFCNKIEDHFIDLPRKKISNFTNKNMKEVKKSPKQLAAYINRTVGQTVKSPDKLRKVIYRRKKVHHPFPNPCYRKKQSPGSGGCDMANKENELACAGHLPEKLHHDSRTYLVNSSDSGSSQTESPSSKYSGFFSEVSQDHETMAQVLFSRNMRLNVALTFWRKRSISELVAYLLRIEDLGVVVDCLPVLTNCLQEEKQYISLGCCVDLLPLVKSLLKSKFEEYVIVGLNWLQAVIKRWWSELSSKTEIINDGNIQILKQQLSGLWEQENHLTLVPGYTGNIAKDVDAYLLQLH”, the “soluble on expression in E. coli” value was “not soluble”.

Turning to “MGSDKIHHHHHHMEKVIYIVWRDPSTKPETFAHDLRTKLAQQLLQLGARGVQINVQDEDVAPAAALRQVNTLPQMDGLVSVWVDSAITSLRRPFDDAVLAATGRMAGYLVTESQPIRNTRHPARAGERTPGFSQLAFLKRPPRLTHEAWLDTWHNRHTQVAIDTQDTFLYVQNVVVRALTYGAPPLDAVVEEGFPEAAMTDPQAFFDAPGDEAKYQRNLAAMMESCQRFIDFDKIDVVASSQYIVRPPAA”, the “soluble on expression in E. coli” value is listed as “not soluble”.

Turning to “EGLNICKKIMVISDKNDAISEFIIKELERGCTIIDGKGGYTGKDTYILYTVLNRKEFIRLRIFIKETDPNAFITISDAKEVLGEGFKEI”, the “soluble on expression in E. coli” value is recorded as “not soluble”.

In the case of “GSHMIKVLSPAKINLGLWVLGRLPSGYHEILTLYQEIPFYDEIYIREGVLRVETNIGIPQEENLVYKGLREFERITGIEINYSIFIQKNIPPGAGLGGGSSNLAVVLKKVNELLGSPLSEEELRELVGSISADAPFFLLGKSAIGRGKGEVLEPVETEISGKITLVIPQVSSSTGRVYSSLREEHFVTPEYAEEKIQRIISGEVEEIENVLGDIARELYPEINEVYRFVEYLGFKPFVSGSGSTVYFFGGASEELKKAAKMRGWKVVELEL”, the “soluble on expression in E. coli” value was “soluble”.

Take “MRGMAANQGERIRRRLSTGERREQLLSVGARLFSESPYDEVWIEQVAEIAGVSRGLLYHYFPNKRDFFAAVVERESERMLRMTAAVPGVPVREQLTAGLDAYLEYVRAHAHGYRAFHRADAAGDRAVRRVYQKALAAQERQILAALAADPEFGPAFEERGDVRLAVRGWLAFTTAVCLEWLRDPEPAREQVRDLCARALLGAVAP”: the “soluble on expression in E. coli” value is given as “not soluble”.

“MKIVIDLMGADHGVLPIIEGVSRALENKSFSVVLVGDKDKATPFISKELASKVEMIHTQDYIKMEEAATEAIKRKESSIYLGMDILKNGADALISAGHSGATMGLATLRLGRIKGVERPAICTLMPSVGKRPSVLLDAGANTDCKPEYLIDFALMGYEYAKSVLHYDSPKVGLLSNGEEDIKGNTLVKETHKMLKAYDFFYGNVEGSDIFKGVVDVVVCDGFMGNVVLKTTEGVASAIGSIFKDEIKSSFKSKMGALMLKNAFGILKQKTDYAEYGGAPLLGVNKSVIISHGKSNARAVECAIYQAISAVESQVCLRITQAFESLKSQSFESQSDQQDA”: the “soluble on expression in E. coli” value was “not soluble”.

With “MRLEGLTIGVGFTGSFCTYDKIFIELENLVKEGANVHTIFSDVSQNIDCRFGNSEEFMKKAYELTGNKPIVTIEEAEPFGPKGIADIIIIAPCTGNTAAKLANGITDSPVLMAAKGHLRNDKPLVISISTNDALSFNFKNIGILLNSKNIYFVPFGQDNCKAKPNSMIAHTELIIPTIELALENKQLQPVIKSPHQLEHHHHHH”, the “soluble on expression in E. coli” value was “soluble”.

Consider “MSLNEKVALVTGASRGIGFEVAHALASKGATVVGTATSQASAEKFENSMKEKGFKARGLVLNISDIESIQNFFAEIKAENLAIDILVNNAGITRDNLMMRMSEDEWQSVINTNLSSIFRMSKECVRGMMKKRWGRIISIGSVVGSAGNPGQTNYCAAKAGVIGFSKSLAYEVASRNITVNVVAPGFIATDMTDKLTDEQKSFIATKIPSGQIGEPKDIAAAVAFLASEEAKYITGQTLHVNGGMYMA”, for which the “soluble on expression in E. coli” value is listed as “soluble”.

In the case of “MALSAEGSSGGSRGGSPKAEAASVPSWPQILGRLTDNRDLARGQAAWAMDQIMTGNARPAQIAAFAVAMTMKAPTADEVGELAGVMLSHAHPLPADTVPDDAVDVVGTGGDGVNTVNLSTMAAIVVAAAGVPVVKHGNRAASSLSGGADTLEALGVRIDLGPDLVARSLAEVGIGFCFAPRFHPSYRHAAAVRREIGVPTVFNLLGPLTNPARPRAGLIGCAFADLAEVMAGVFAARRSSVLVVHGDDGLDELTTTTTSTIWRVAAGSVDKLTFDPAGFGFARAQLDQLAGGDAQANAAAVRAVLGGARGPVRDAVVLNAAGAIVAHAGLSSRAEWLPAWEEGLRRASAAIDTGAAEQLLARWVRFGRQILEHHHHHH”, the “soluble on expression in E. coli” value is “soluble”.

As for “MAISVFDMFKIGIGPSSSHTVGPMRAGALFVTELRNQNRLHSVERIEVRLYGSLSATGIGHGSDRATVMGLMGEWPDQIDPSQVNQRIDALRADNQLMLAGEQAITFVWERDMCLLDESLPYHPNGMTLCAYGKTGEVHEQTYYSVGGGFVIDAEQAASGV”, the “soluble on expression in E. coli” value is listed as “not soluble”.

As to “MGEQPIFSTRAHVFQIDPNTKKNWVPTSKHAVTVSYFYDSTRNVYRIISLDGSKAIINSTITPNMTFTKTSQKFGQWADSRANTVYGLGFSSEHHLSKFAEKFQEFKEAAR”, the “soluble on expression in E. coli” value was “soluble”.

For the sequence “MGSDKIHHHHHHGTISHSVEPGDNLYNLAARYMGNPHAWPDIQKLNHISNPHRLKPGTSLLIPKVSSTVTASFVHGEAWLVDDAGNTIKRIAHGDQLNEGDIVRTGQHSYLSLEFADHSVARILSNTHVRLDRIKESGLVPQGQRVIYLEQGNMDVSVTPAPKCNSQHFKVITPQAVAAVRGTRFSVGVGSVSATSVTQGKVEMQPPQPGKSRSGKMLQAGQGIAASGNGLGEVQPLLAAPDLSQLPSMLPEPELLQFDWPAVNGGSEYQYRIAQDEGMEQVLWNAASYSASATLPSLQDGEYLLAVRALDSYGIPGYEAQHRFIIHSHPSSPWLLSPQQGQPIDGNGILRCTPVEGAQGYHLQIATDDEFRELVVDSGPLDRCQYQLASLAEGDYYWRVASVNAEEEGRLGPYSQPASLTVSQDAHTLPIIAGEAYWTSTLQDARYIAQISRSPRFDTLVAEQELDSPRINIQSLPAGRYYVRLATRLENDTGPFSDARIIEVEHEDNGMDRTWFDKPRS”, the “soluble on expression in E. coli” value is on record as “not soluble”.

On to “MRLLVSCVDSGSIKEVLCNIGTDTSVQSALQPFHVAPHLAEGLKAYVDRMWVISEDEAILARNSGVVELVKISKHLKENEALQVDPKGESKNEKSLSDDLPKFDISEFEITSSVSDLFDDAKLESLSSKSVKRTKLVDGFVTLCPIKKDSSNNTFVAATKSGLLHIIKKGEDKKLIKLASLGLKAPVEFLQLYDLEDTDTDKYIFAYGGEENLIKLVEIDSSFQSLKQIWEAKNVKNDRLDMRVPVWPMALRFLEPSPGKTEKGKLNYQFAAITRWSHLTKYSTQHGRKPFAQIDLLPNREPLSQMEVFDAKGENVVSSLGNFQSETFNELNVITTDYKKNVFKFDGNGRMLGKVGRDDITGSSTYIHVHDGKYLLQGGLDRYVRIFDIKTNKMLVKVYVGSRINFIVMLDDVEIEMPLSPSAKAAKGKQKRKVTELEEDADELWNKLEGKVAASKASKKSKI”, for which the “soluble on expression in E. coli” value is on record as “soluble”.

“MGSDKIHHHHHHMSQPVWPNFYIIGAVKSGTTSLYAYLRQHPQVFLPAMKEPHFFTQPHPSPEQRHWIQYVGNVEQYQQLYRGAERFPRIGDASPSYLWCEEAPERIHAVQPDARIIVILRDPVQRAHAQYLMDFNEGVLDLPFVEALQRDWTRPDKGWGISQLYVELGRYTAQIMRYQQQFGAGQVHVCLLEDLKKNPLAVLEDIADFLEIDRGPLHDMDLETVHNVHRLPRGNWARQLASGHISRYIGEHLFPRTWGEFVWRNVFLREGRKPPMDAEARSFLQAIYTPEIERLEQLLGRPLPELRISWKFSEPAGQSLSTALPPKPSGNR”: the “soluble on expression in E. coli” value is on record as “not soluble”.
